B1: Sp1-3 (dsDNA)
DNA 1: TTCTCCCCACCCGCCCCCCCGCCCCCGTCG
DNA 2: CGACGGGGGCGGGGGGGCGGGTGGGGAGAA
B2: Sp1-1 (dsDNA)
DNA 1: CGGCCCGGTGGGGGCGGGACCCGACTCGCA
DNA 2: TGCGAGTCGGGTCCCGCCCCCACCGGGCCG
B3: ARS (dsDNA)
DNA 1: TCTCCACCCCGCCTCCCCCCACCCTGCCTT
DNA 2: AAGGCAGGGTGGGGGGAGGCGGGGTGGAGA

Biological target: Sp1 (purified recombinant) (Homo sapiens, UniProt P08047 1-785)
Experiment: EMSA; EMSA: 10 ug nuclear extract or 120 nM Sp1, 20 fmol biotin probe; binding buffer per earlier paper (not given); 6% native PAGE, 0.5x TBE pH 8.3, cooled gel. pur-alpha bands not listed: antibody had no effect, protein not identified in extract.
Settings: label: 3' biotin, blunt

Sp1 (purified recombinant), sequence (P08047 whole entry): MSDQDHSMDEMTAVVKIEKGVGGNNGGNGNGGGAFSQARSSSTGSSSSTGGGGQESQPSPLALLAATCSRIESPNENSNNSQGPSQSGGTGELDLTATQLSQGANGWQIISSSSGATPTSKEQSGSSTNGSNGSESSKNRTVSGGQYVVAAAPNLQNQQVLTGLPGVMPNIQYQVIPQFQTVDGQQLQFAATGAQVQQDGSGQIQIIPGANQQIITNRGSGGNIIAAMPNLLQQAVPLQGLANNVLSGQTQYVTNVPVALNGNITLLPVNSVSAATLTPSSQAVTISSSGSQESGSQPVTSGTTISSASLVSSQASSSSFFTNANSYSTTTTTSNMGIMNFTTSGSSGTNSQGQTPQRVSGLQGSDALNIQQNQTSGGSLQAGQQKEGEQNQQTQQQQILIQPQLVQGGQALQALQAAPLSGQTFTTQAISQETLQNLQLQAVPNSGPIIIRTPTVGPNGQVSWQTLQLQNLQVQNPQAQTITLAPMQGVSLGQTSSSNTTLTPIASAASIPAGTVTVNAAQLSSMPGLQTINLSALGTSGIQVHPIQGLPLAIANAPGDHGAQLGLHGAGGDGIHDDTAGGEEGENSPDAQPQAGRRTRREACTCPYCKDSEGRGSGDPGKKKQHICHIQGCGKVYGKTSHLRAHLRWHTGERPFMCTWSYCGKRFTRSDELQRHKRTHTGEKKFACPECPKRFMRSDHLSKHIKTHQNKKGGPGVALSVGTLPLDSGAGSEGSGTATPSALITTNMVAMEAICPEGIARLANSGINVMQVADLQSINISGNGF

Binder	binding result
B1	binds
B2	binds
B3	binds
